# T1: MsDyP (unencapsulated DyP) (Mycolicibacterium smegmatis, UniProt A0R4G9)
# T1 sequence (A0R4G9 1-343): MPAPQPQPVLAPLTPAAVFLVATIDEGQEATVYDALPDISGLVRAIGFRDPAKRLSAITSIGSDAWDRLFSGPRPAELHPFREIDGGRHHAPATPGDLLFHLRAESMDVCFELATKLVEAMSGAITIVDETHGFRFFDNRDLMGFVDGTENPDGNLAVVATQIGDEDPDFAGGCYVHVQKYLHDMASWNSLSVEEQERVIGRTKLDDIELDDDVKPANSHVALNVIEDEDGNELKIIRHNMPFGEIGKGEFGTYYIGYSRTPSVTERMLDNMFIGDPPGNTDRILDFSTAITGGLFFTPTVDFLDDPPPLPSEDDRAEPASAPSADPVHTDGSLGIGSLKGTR
# B1: CFP-29 (29 kDa culture filtrate protein), encapsulin shell protein of Mycobacterium smegmatis (natural protein)
# chain: MNNLYRDLAPITESAWAEIELEATRTFKRHIAGRRVVDVSGPNGPTTASVSTGHLLDVSPPGDGVIAHLRDAKPLVRLRVPFTVARRDIDDVERGSQDSDWDPVKDAAKKLAFVEDRAIFEGYAAASIEGIRSSSSNPALALPDDAREIPDVIAQALSELRLAGVDGPYSVLLSAETYTKVSETTAHGYPIREHINRLVDGEIIWAPAIDGAFVLSTRGGDFDLQLGTDVSIGYLSHDAEVVHLYMEETMTFLCYTAEASVALTP
# B2: DyP (dye-decolorizing peroxidase), native cargo of the Mycobacterium smegmatis encapsulin (enzyme)
# chain: T1 sequence (A0R4G9 1-343)
# Experiments:
# [1] = molecular target: T1, MsDyP (unencapsulated DyP); format: biochemical
# cryo-EM structure = molecular target: the molecule itself; assay: cryo-EM structure
Molecule,"peroxidase assay, oxidation monitored at 430 nm [1]",stoichiometry N (cryo-EM structure)
Oc1cccc(O)c1O [pyrogallol],utilizing H2O2 as the electron acceptor and pyrogallol (Sigma P0381-25g) as an electron donor,
B1,,60
B2,,12

# Source: article PMC8072242 (Proceedings of the National Academy of Sciences of the …, 2021)
